B1: GAPC1 (cytosolic glyceraldehyde-3-phosphate dehydrogenase C1) (Arabidopsis thaliana) (protein)
chain: MADKKIRIGINGFGRIGRLVARVVLQRDDVELVAVNDPFITTEYMTYMFKYDSVHGQWKHNELKIKDEKTLLFGEKPVTVFGIRNPEDIPWAEAGADYVVESTGVFTDKDKAAAHLKGGAKKVVISAPSKDAPMFVVGVNEHEYKSDLDIVSNASCTTNCLAPLAKVINDRFGIVEGLMTTVHSITATQKTVDGPSMKDWRGGRAASFNIIPSSTGAAKAVGKVLPALNGKLTGMSFRVPTVDVSVVDLTVRLEKAATYDEIKKAIKEESEGKLKGILGYTEDDVVSTDFVGDNRSSIFDAKAGIALSDKFVKLVSWYDNEWGYSSRVVDLIVHMSKA
B2: TPI (chloroplastic triosephosphate isomerase) (Arabidopsis thaliana) (protein)
chain: MAGSGKFFVGGNWKCNGTKDSIAKLISDLNSATLEADVDVVVSPPFVYIDQVKSSLTDRIDISGQNSWVGKGGAFTGEISVEQLKDLGCKWVILGHSERRHVIGEKDEFIGKKAAYALSEGLGVIACIGEKLEEREAGKTFDVCFAQLKAFADAVPSWDNIVVAYEPVWAIGTGKVASPQQAQEVHVAVRGWLKKNVSEEVASKTRIIYGGSVNGGNSAELAKEEDIDGFLVGGASLKGPEFATIVNSVTSKKVAA
notes: measured mass 29273 Da; homodimer

Legend:
[1] = substrate: O=CC(O)COP(=O)(O)O; experiment: purified protein; conditions: non-glycated enzyme, 10 mM NAD+, 3 mM DTT, 10 mM sodium phosphate pH 8.5, 100 mM NaCl, 25 °C
[2] = substrate: O=CC(O)COP(=O)(O)O; experiment: purified protein; type: biochemical, Arabidopsis thaliana; conditions: non-glycated enzyme, 0.1 mM NADH, alpha-glycerophosphate dehydrogenase 5 U, 10 mM sodium phosphate pH 7.0, 100 mM NaCl, 25 °C

| Protein | Km [1] | kcat [1] | kcat/Km [1] | Km [2] | kcat [2] | kcat/Km [2] |
| --- | --- | --- | --- | --- | --- | --- |
| B1 | 0.77 (±0.21) mM | 76.4 s⁻¹ | 99000 M⁻¹ s⁻¹ |  |  |  |
| B2 |  |  |  | 1.21 (±0.39) mM | 18.4 ± 2.25 s⁻¹ | 15000 M⁻¹ s⁻¹ |

Source: article PMC6322573, “Profiling of advanced glycation end products uncovers abiotic stress-specific target proteins in Arabidopsis” (Journal of Experimental Botany, 2018)
